Source: patent US20130171159

System: T1, Twist1
T1 sequence: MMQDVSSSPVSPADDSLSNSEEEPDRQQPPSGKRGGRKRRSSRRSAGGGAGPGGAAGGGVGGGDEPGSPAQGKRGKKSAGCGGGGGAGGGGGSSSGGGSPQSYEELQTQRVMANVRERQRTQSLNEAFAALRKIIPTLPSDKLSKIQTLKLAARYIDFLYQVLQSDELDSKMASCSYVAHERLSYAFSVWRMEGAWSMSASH

## Akt (protein kinase B), Akt1 and Akt2 of mouse embryonic fibroblasts
  Phosphorylation of Twist1 on S42 in Akt1/2-depleted versus wild-type MEFs: Phosphorylation of Twist1 was not detected in Akt1/2-depleted MEFs under basal conditions or after insulin stimulation, but was high in stimulated wild-type MEFs
